# Measured values taken from patent publication US20050276800A1 (MEDICAL RESEARCH COUNCIL, published 2005).
# T1: LexA DBD (made from the empty pBTM 116 vector) (UniProt P0A7C2 1-202, limits assumed)
# T1 construct: domain: LexA DBD; Bait-only control in the yeast two-hybrid assay
# T1 sequence (looked up): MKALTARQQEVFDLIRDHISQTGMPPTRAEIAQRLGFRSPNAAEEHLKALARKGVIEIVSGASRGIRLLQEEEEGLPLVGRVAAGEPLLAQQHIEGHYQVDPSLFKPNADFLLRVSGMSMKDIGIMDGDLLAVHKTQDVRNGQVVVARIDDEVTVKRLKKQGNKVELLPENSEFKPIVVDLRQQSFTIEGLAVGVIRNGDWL
# B1: anti-RAS scFv I21 (scFv)
# scFv: EVQLLESGGGLVQPGGSLRLSCAASGFTFSSYAMSWVRQAPGKGLEWVSTISYGGSNTNYADSVKARFTISRDNSKNTLYLQMNSLRAEDTAVYYCAKGNNAFDYWGQGTLVTVSSGGGGSGGGGSGGGGSTDIQMTQSPSSLSASVGDRVTITCRASQSISSYLNWYQQKPGKAPKLLIYNASALQSGVPSRFSGSGSGTDFTLTISSLQPEDFATYYCQQYTSTPRTFGQGTKVEIKR
# notes: also called ICAb I21
# Legend:
# [1] = molecular target: T2, Recombinant oncogenic HRAS (G12V; residues 1-166) (human, UniProt P01112 1-166); assay: SPR (BIAcore 2000); HRASG12V-GppNp immobilised on CM5 chip, purified scFv as analyte; BIAcore, purified bacterial scFv in vitro; weak micromolar binding
# T2 construct: range 1-166; ELISA and BIAcore: purified from bacteria and loaded with GppNp, a non-hydrolysable GTP analogue; Mammalian two-hybrid: codons 1-166 fused C-terminal to the GAL4 DBD (pM1-RASG12V); Yeast two-hybrid: truncated HRASG12V fused to the LexA DBD (pBTM116-RASG12V); The DBD parts are not written into the chain; also called HaRASG12V; Ha-RASG12V
# [2] = molecular target: T2, Recombinant oncogenic HRAS (G12V; …); assay: surface plasmon resonance (BIAcore 2000), HRASG12V-GppNp immobilised at about 1500 RU, purified scFv injected
# [3] = molecular target: T1, LexA DBD (made from the empty pBTM 116 …); assay: yeast two-hybrid (His growth, β-gal); data not shown
binder,measurement,setting,value
B1,Kd,[1],2160 nM
same,Kd,[2],1310 nM
same,koff,[2],0.0212 s⁻¹
same,kon,[2],16700 M⁻¹ s⁻¹
same,binding result,[3],no binding
